{"source": "paper PMC3135484", "about": "(Molecular Biology of the Cell, 2011)", "binders": {"B1": {"name": "GST-tagged Vam7 PX domain (1-129) (domain or fragment)", "chain": "MAANSVGKMSEKLRIKVDDVKINPKYVLYGVSTPNKRLYKRYSEFWKLKTRLERDVGSTIPYDFPEKPGVLDRRWQRRYDDPEMIDERRIGLERFLNELYNDRFDSRWRDTKIAQDFLQLSKPNVSQEK"}, "B2": {"name": "SNARE complex assembled on GST-Vam7 SD with Vam3, Vti1 and Ykt6 (complex)", "chain 1": "PSTEVTRRAALLRSLLKECDDIGTANIAQDRGRLLGVATSDNSSTTEVQGRTNNDLQQGQMQMVRDQEQELVALHRIIQAQRGLALEMNEELQTQNELLTALEDDVDNTGRRLQIANKKARHFNNSA", "chain 2": "MSFFDIEAQSSKGNSQQEPQFSTNQKTKELSNLIETFAEQSRVLEKECTKIGSKRDSKELRYKIETELIPNCTSVRDKIESNILIHQNGKLSADFKNLKTKYQSLQQSYNQRKSLFPLKTPISPGTSKERKDIHPRTEAVRQDPESSYISIKVNEQSPLLHNEGQHQLQLQEEQEQQQQGLSQEELDFQTIIHQERSQQIGRIHTAVQEVNAIFHQLGSLVKEQGEQVTTIDENISHLHDNMQNANKQLTRADQHQRDRNKCGK", "chain 3": "MSSLLISYESDFKTTLEQAKASLAEAPSQPLSQRNTTLKHVEQQQDELFDLLDQMDVEVNNSIGDASERATYKAKLREWKKTIQSDIKRPLQSLVDSGDRDRLFGDLNASNIDDDQRQQLLSNHAILQKSGDRLKDASRIANETEGIGSQIMMDLRSQRETLENARQTLFQADSYVDKSIKTLKTMTRR", "chain 4": "MRIYYIGVFRSGGEKALELSEVKDLSQFGFFERSSVGQFMTFFAETVASRTGAGQRQSIEEGNYIGHVYARSEGICGVLITDKEYPVRPAYTLLNKILDEYLVAHPKEEWADVTETNDALKMKQLDTYISKYQDPSQADAIMKVQQELDETKIVLHKTIENVLQRGEKLDNLVDKSESLTASSKMFYKQAKKSNSCCIIM"}, "B3": {"name": "Q-SNARE complex assembled on GST-Vam7 SD with Vam3 and Vti1 (complex)", "chain 1": "B2 chain 1", "chain 2": "B2 chain 2", "chain 3": "B2 chain 3"}, "B4": {"name": "minimal SNARE complex assembled on GST-Vam7 SD with Vam3ΔN, Vti1 and Ykt6 (complex)", "chain 1": "B2 chain 1", "chain 2": "ESSYISIKVNEQSPLLHNEGQHQLQLQEEQEQQQQGLSQEELDFQTIIHQERSQQIGRIHTAVQEVNAIFHQLGSLVKEQGEQVTTIDENISHLHDNMQNANKQLTRADQHQRDRNKCGK", "chain 3": "B2 chain 3", "chain 4": "B2 chain 4"}}, "target": "HOPS (homotypic fusion and protein sorting) complex (yeast (S. cerevisiae), UniProt P38959;Q07468;P20795;P12868;Q03308;P27801)", "test": "pull-down"}
{"binder": "B1", "values": [{"measurement": "binding result", "result": "binds"}]}
{"binder": "B2", "values": [{"measurement": "binding result", "result": "binds"}]}
{"binder": "B3", "values": [{"measurement": "binding result", "result": "binds"}]}
{"binder": "B4", "values": [{"measurement": "binding result", "result": "binds"}]}
